Results as given in a protein production outcome set (Wang et al. 2014).

Assay: label from the status in PepcDB records
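Note: failed if final PepcDB status was selected cloned or expressed and not failed if soluble or beyond.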

Sequence	protein production
MANIVFIATSLDGYIADKRGKLDWLHSVPNPNNVDTGFVALMERVDGLVMGRNTLDMVLSFDCDWPYSKPVFVLSNTMTEVPQGYEDKVFLVKGKLVDIIADLNAKGFNELYIDGGVTIQNFLKEDLIDEMVITRFPILLGGGVPLFGELESSLSFNVIKSEVVLDSLTQTTYHRKRA	not failed
MKPTMMTYINEEEEMCRVILADFQTNAEKLESLVKNGAKEWLILATGSSLNAAQSAKYYIENLADVRITIEEPFNHLYYEKLSSHLDLVIGISQSGQSTSTISALERVKKEASVPVVALTSDVTSEIAEFADITLDIGSGKERVGYVTKGFTATVLTLMLTGLHFAYKTVQIDETRFNNEISAFSRAIDAIPATIAETEAFYERWQEEFATAPKFTAIGYGPTVGTCKEFETKFSETVRVPSQGLDLEAFMHGPYLEVNPQHRIFFLETASAVTERLVLLRDYESKYTPFTYTVKFGKGEDDRTLVIPTDLDEYQAPFLMILPFQILAHHIAELKGNKLTERIYTDFGVAMKSKTKPGDYA	not failed
MSLRIRVPATTANLGPGFDSCGLALTLYLTLDIGAEADSWYIEHNIGGGIPHDETNVIIETALNLAPNLTPHHLVMTCDIPPARGLGSSSAAVVAGIELANTLAELNLSKEEKVRIAAEIEGHPDNVAPAVLGNWVVGAKLDGEDFYVRHLFPDCALIAFIPKAELLTSESRGVLPDTLPFKEAVQASSIANVMIAAILRNDMALAGEMMERDLWHEKYRSQLVPHLTQIRDVAKSQGAYAACLSGAGPTVLVFAPRNLANTLQTSLQTLEIDADVLLLDVEGSGAEVFREGHHHHHH	not failed
MYMSSLQSTRERVLGTPRRRYKVLVAKMGLDGHDRGAKVVARALRDAGFEVVYTGLRQTPEQVAMAAVQEDVDVIGVSILNGAHLHLMKRLMAKLRELGADDIPVVLGGTIPIPDLEPLRSLGIREIFLPGTSLGEIIEKVRKLAEEKRMREEAEASEQVGQA	not failed
EKEKDTIAAEHKQEASVLLNLHRNKINYLIGETMARMTSLSIAIDRPVDIKKMQSILEKTFDSEPRFSGLYFLNAKGDVTASTTELKTKVNLADRSFFIKAKETKKTVISDSYSSRITGQPIFTICVPVLDSKRNVTDYLVAAIQIDYLKNLINLLSPDVYIEVVNQDGKMIFASGQASHAEDQKPVSGYLDDISWNMKVYPNPVTIEELSKSL	not failed
SASRGKTETSKLKQNLEEQLDRLMQQLQDLEECREELDTDEYEETKKETLEQLSEFNDSLKKIMSGNMTLVDELSGMQLAIQAAISQAFKTPEVIRLFAKKQPGQLRTRLAEMDRDLMVGKLERDLYTQQKVEILTALRKLGEKLTADDEAFLSANAGAILSQFEKVSTDLGSGDKILALASFEVEKTKK	not failed
KLKISEASLEDYSEVVHLFNRNHVYQFPDGRPLTVDDLDLTLKVKEVTHLFLLKNHGVLIGTSAFFKFITYGCLDWNSSFSGFLLIDSKSRSGQAITYLYKTILKKITKLKFSNIYTEISNYNKPSLALSKLNGFKEYDKTYEDILHCRSLRSHL	failed
MKFLVENLNGSSFELEVDYRDTLLVVKQKIERSQHIPVSKQTLIVDGIVILREDLTVEQCQIVPTSDIQLEVSS	not failed
MKDFIRYTKKRNLSLNTIRTYESVLKHYEPVLDSWIKIRNKIINSNFKPRTIHLHKNVLLSFFEFKKLKRYLQNLKLLKLPQIEMKYFDVISKNNLYKKTDILDDDSLEIKKYKTIIRFLFETGIRAHELFFLESINNRLYVLGKGNKKRQIFFVKQTFEQLQKFYENLKGFETTKTLRLYIKKIIGKNFTPHSLRRSFATFMLIKGANPKTVMLQMGHANIQTTFSYLNLNEQTNRRIYNKIMYQNDAE	failed
MPGIDKLPIEETLEDSPQTRSLLGVFEEDATAISNYMNQLYQAMHRIYDAQNELSAATHLTSKLLKEYEKQRFPLGGDDEVMSSTLQQFSKVIDELSSCHAVLSTQLADAMMFPITQFKERDLKEILTLKEVFQIASNDHDAAINRYSRLSKKRENDKVKYEVTEDVYTSRKKQHQTMMHYFCALNTLQYKKKIALLEPLLGYMQAQISFFKMGSENLNEQLEEFLANIGTSVQNVRREMDSDIETMQQTIEDLEVASDPLYVPDPDPTKFPVNRNLTRKAGYLNARNKTGLVSSTWDRQFYFTQGGNLMSQARGDVAGGLAMDIDNCSVMAVDCEDRRYCFQITSFDGKKSSILQAESKKDHEEWICTINNISKQIYLSENPEETAARVNQSALEAVTPSPSFQQRHESLRPAAGQSRPPTARTSSSGSLGSESTNLAALSLDSLVAPDTPIQFDIISPVCEDQPGQAKAFGQGGRRTNPFGESGGSTKSETEDSILHQLFIVRFLGSMEVKSDDHPDVVYETMRQILAARAIHNIFRMTESHLLVTCDCLKLIDPQTQVTRLTFPLPCVVLYATHQENKRLFGFVLRTSSGRSESNLSSVCYIFESNNEGEKICDSVGLAKQIALHAELDRRASEKQKEIERVKEKQQKELNKQKQIEKDLEEQSRLIAASSRPNQASSEGQFVVLSSSQSEESDLGEGGKKRESEA	failed
MFMEVSLTSLPAHVMNALDAIWEGSIADSLESETLEFKEDPSCAGRGKQHGNPQAALIEKLIDEAVCLANGDAGTGHIVVGIKDKIGGPEAFTGTTFDTEKIAKKIFDGTRPNLRPEVHEVRYQNNRLIVIYIPEALSLYSRSKGQTSKRVGSHCEPLSEEQRRAIAATRAHADYSNGISEFNVDDIAADTIQEVRRLLKTKRAQSGIDTSLPTTTNGLLRELGLIDNYGALKRAGAILLLPAPEGQLSIRHFWRSFPGIDPEVTDYNQPLLIALSSLKRRITENANKEIKRIQFSDGQEIAVSAFPQTAVDEVVTNAIIHRDWRLSRPVVIDQSPQTLKVWSPGSLPVGVTPNRLLTTQSIPRNSRLMSAMRMLGLAEESSRGFDRIWAALLGSGRDIPDVHTEDTFVEVILHSGNPDESFIKALHELSLSFNPDMLHSVNTLIVLWHLWTSPVISLKQARVKTQTSSKEATELMFALESNGLLTQIHNTDEWFLSEKARKTTNYYQSETIPQSSVQTWVEEKLSSGSPISAAEIAESIGMPRPEITEILRNLRRAGKAHIDPSGPQRGSGTRWIKGT	failed
QKQYWVCNSSDASISYTYCDKMQYPISINVNPCIELKGSKGLLHIFYIPRRDLKQLYFNLYITVNTMNLPKRKEVICRGSDDDYSFCRALKGETVNTTISFSFKGIKFSKGKYKCVVEAISGSPEEMLFCLEFVILHQPNSN	failed
MSNQYDPSQPVVFTDFSPKEGGMRTRLYIEGSNFGNDPTKIHITIGGEKTKTIGADGKKIYCMVPSKAFDGIINVRVDGPDGKPIAEHTFEEEFKYTPATIVGTLLRKVDEDNNSAFQEGSFDEGASIPSNDCMVFDPKYKDGDNRLLFSSNHSDGLHLIDLTERTVKRLFPRTGYSTMYSFTFSADGDTLLFTDDHGQDNTTRANIYYSLRRENFRRIRPYNYGRTAYSLVYMDDGTIFYTTWWEGKVYKMIRNGAIPNIDENAEVAFSLSQISAVGGSHTILFRHPSNKFMYMLSDNFGAVFRADYDPVAKTFGNPSIIAGNMNDKSFKEGTGGSARFNKPQFGVFVKNEKYGEGIGPDNDQYDFYFCDRENHCIWKLDPHGVASLAAGRSNENADGKIWGYVDGNPLHEARFNQPAGLAYDPDTDMFYIGDIDNKGIRYMTTELEHHHHHH	failed
MASRSKPSVRAFARQVHLWLGLSIGVLFAVVGLTGSILVFYTAIDDALHPEIRLRGAAPPPSWEQVYQTARATYPDKAGPWRFEVTEAGGDIPARYYKPPERADRDFAPMMVWFSADGGRVIRRDYWGEYAMTWVYDLHHRLLLQATGGAILGWSGLAMLALMVAGLTAWWPRRGGWRKALQMKPRAAPLRKLYDWHKQTGLWSFGLLVLLTLTGVLLALPKESEIALRPILGPPAGAPTIDKSITFDPGTRISVDQAVAIAQGALPGARLAWIETPSTDSGVYRLRLQTPGDPSRRFPHSFVWITPATGEVLAMTDARQAGAHDVLLNWTHPLHDASAGGLPARLLAVLVGLAPSALLILGFMRWRQRLRPQERKLSDHS	failed
MNGGSSIKVLGLVGSPKVDGNTAKMVDAILEGAAENGAETVIYNLASLDIKGCDACHRCQETGCCAIDDDMQELYRQIEEADAVVLGSPVYMWQMTAQTKLLIDRMTAFLKPNFSSRLDHKKLILVFTQGIPDRDAFNSYFEYTAGVLYYLGFDVLETIVAAGTDNLEVAFRPRLLEKSRELGKLISASNPVSPRLEHHHHHH	failed
WVSNIDPAETFRHTELHVVKSVYDGLLTQNSNGGIEPALAHEWKMEENVMTLWLRPGIFRHDGELLSIDDVVWSLERLKQIKGPVYELWQCIETVTAETPNCLKIVLKRANQFFPYMLATPHASILCRDTASFGSGYSYHIGTGPFRISSWN	failed
MNIETLMIKNPPILSKEDRLGSAFKKINEGGIGRIIVANEKIEGLLTTRDLLSTVESYCKDSCSQGDLYHISTTPIIDYMTPNPVTVYNTSDEFTAINIMVTRNFGSLPVVDINDKPVGIVTEREFLLLYKDLDEIFPVKVFMSTKVQTIYKEVRLDQAVKLMLRRGFRRLPVIDDDNKVVGIVTVVNAIKQLAKAVDKLDPDYFYGKVVKDVMVTNLVTIDELASVNRAAAEMIVKRIGSLLILNKDNTIRGIITERDLLIALHHILVMEKFKEKL	not failed
MNSLSSLAAVLLMAGRSTRMGQPKALLPLGGMPLCRHAAQTLVEAGYGEVWAVLPPGETGDAVRAALQGLPLRWVTNPQPAQGLLSSFQAAGEALWAESAAPAVVFTLADMPLVRRDTHQALGTVFGAEQPAAIITRYGEVAAPPTLLRRDLLPRLHEFPPSDHGPRTLLRELGRELKKIDRPAAELLDIDTPEAWAQAQQLFAEVTPGAQDGP	failed
MENTAPDVLDAGAAELPVERLKPELADVPNEKEDEDEAVCGGAEGVVELVVELAVLFKKENPVEAENGEAEAFEVLDVDEELKVDTPNGDGEEVVAPDEEDAKRDGVEPAEEDEPKNGEEPVAPKIDGEEPEADEATLKEGDEPVAPKMDDEEPGADEATLKDGVAPVADDGAPKRGDVEVAADEDAPKREELEAEADEGAENKEGEDPKRGVEPLAGAAPNGDDDGVAAEEAGAPNRDDDGVAVEEAEEVTNPKGEEPGAAEEALVVDEPNSDGAGADEEAAVPNPNDGVVEAGVTEAEDPNPNDGVDEEAEEPNPKEGVEEAPNPNDGVVEEAGVDDTEDPKPNPVELGFEDWLKEKDNGEVVDEAEEELVAEEDPNENPPTELD	failed
MSLRIVVTVKYVPDATGDRHFAEDLTVDRDDVDGLLSELDEYAVEQALQIADDADDADDAEITVLTVGPEDAKDALRKALSMGADKAIHVEDDDLHGTDVIGTSLVLAKAIEKAGYDLVISGMASTDGTAGVVPALLAERLGVPQVTLLSEVSVEDGVVKGRRDGDSASEQLEASLPAVVSVTDQSGEARYPSFKGIMAAKKKPVESWDLSDLDLEAEEVGLEGAWTKVDSATERPARTAGTIVKDEGEGGKQLAEFLAGQKFI	failed
MSLDMSPVQGKLDGRIRAQNPEEFLERLSQEYHFQWFVYNDTLYVSPSSEHTSARIEVSPDAVDDLQTALTDVGLLDKRFGWGSLPDEGVVLVRGPAKYVEFVRDYSKKVEKPDEKADKQDVVVLPLKYANAADRTIRYRDQQLVVAGVASILQELLESRSRGESIDSVNLLPGQGSSVANSTGVAAAGLPYNLGSNGIDTGALQQGIDRVLNFNSKKTAKGHASGKANIRVSADVRNNSVLIYDLPERKAMYQKLVKELDVPRNLIEIDAVILDIDRNELAELSSRWNFNAGSVGGGANLFDAGTSSTLFLQNASKFSAELHALEGNGSASVIGNPSILTLENQPAVIDLSRTEYLTATSERAADILPITAGTSLQVIPRSLDNDGKPQVQMIVDIEDGQIDVSTINDTQPSVRRGNVSTQAVIAEHGSLVIGGFHGLEANDRIHKIPLLGDIPYIGKLLFQSRSRELSQRERLFILTPRLIGDQVNPARYVQNGNPHDVDDQMKKIKERRDGGELPTRGDIQKVFTQMIDGAAPEGLRAGQTLPFETDSLCDPGEGLTLDGQRSQWFVKKDWGVAVVVARNNTDKPVRIDESRCGGRWVIGVAAWPHAWLQPGEESEVYIAVRQPQISKMAKESRPSLLRGAKP	failed
